From CN113583116A (YANG SHENG TANG CO LTD; UNIV XIAMEN, dated 2021) come the findings set out here.

Assay [1] deals with T1, SARS-CoV-1的RBD重组蛋白 SARS-CoV1-RBD (SARS-CoV-1, UniProt P59594 306-527). Nature of the assay: indirect ELISA, RBD coated at 2 μg/mL, antibody at 10, 1, 0.1 and 0.01 μg/mL. A general note: ELISA stands for enzyme-linked immunosorbent assay.
The target of assay [2] is T1, SARS-CoV-1的RBD重组蛋白 SARS-CoV1-RBD.

B1: 小鼠单克隆抗体36H6 (antibody, V domains shown)
VH: EVQLQQSGPELVNPGASVKISCKTSGYTFTEYTMHWVKQSHGKSLEWIGGINPNNGDTIYNQKFKGKATLTVDKSSSTAYMELRSLTSEDSAVFYCAREGDYYVSSYGYWGQGTTLTVSS
VL: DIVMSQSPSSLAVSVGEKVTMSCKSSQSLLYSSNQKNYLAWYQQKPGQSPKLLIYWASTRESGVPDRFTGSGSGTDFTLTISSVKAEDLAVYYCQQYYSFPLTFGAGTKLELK
In the case of B1, the binding result in assay [1] is “no binding (tested: 10μg/mL)”.

B2: 小鼠单克隆抗体2B4 (antibody, V domains shown)
VH: QVQLQQPGAELVRPGASVKLSCKASGYTFTSYWMNWVKQRPEQGLEWIGRIDPYDSETHYNQKFKDKAILTVDKSSTTAYMQLSSLTSEDSAVYYCARWGTVEWFFDYWGQGTTLTVSQ
VL: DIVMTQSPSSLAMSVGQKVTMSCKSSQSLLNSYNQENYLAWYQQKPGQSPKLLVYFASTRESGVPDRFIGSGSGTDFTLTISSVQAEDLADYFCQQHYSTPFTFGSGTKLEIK
B2: the dissociation constant (Kd) in assay [2] is 34.1 nM.

One may read the Kd as the constant that tells how readily two partners part at equilibrium. Low values mean a tighter complex, high ones a looser complex.
